{"source": "paper PMC5438308", "about": "“Structural and dynamic insights into the role of conformational switching in the nuclease activity of the Xanthomonas albilineans Cas2 in CRISPR-mediated adaptive immunity” (Structural Dynamics, 2017)", "proteins": {"B1": {"name": "Xanthomonas albilineans Cas2 (enzyme)", "chain": "MMVLVSYDVSTSSPGGDKRLRKVAKACRDLGQRVQFSVFEIEVDPAQWTALRQRLCDLIDPDIDSLRFYHLGAKWEARVEHVGAKPSLDLKGPLIF", "notes": "Cas2 of Xanthomonas albilineans, subtype I-C CRISPR-Cas system; synthetic cas2 gene in pET21a; residue numbers in the structure run to 96 (C-terminal tails 87-96 / 86-96 not modelled); also called XaCas2; WT XaCas2; not shown: His6, C-terminal, kept"}}, "biological_target": "the molecule itself", "assay": "SEC"}
{"protein": "B1", "values": [{"measurement": "stoichiometry N", "value": 2}]}
